According to patent publication US20240084003A1 (SIMCERE ZAIMING PHARMACEUTICAL, published 2024):

T1: rhesus monkey CD22-ECD-His protein (rhesus monkey, UniProt H9G1X2 18-686)
T1 construct: extracellular domain; also called monkey CD22 protein
T1 sequence: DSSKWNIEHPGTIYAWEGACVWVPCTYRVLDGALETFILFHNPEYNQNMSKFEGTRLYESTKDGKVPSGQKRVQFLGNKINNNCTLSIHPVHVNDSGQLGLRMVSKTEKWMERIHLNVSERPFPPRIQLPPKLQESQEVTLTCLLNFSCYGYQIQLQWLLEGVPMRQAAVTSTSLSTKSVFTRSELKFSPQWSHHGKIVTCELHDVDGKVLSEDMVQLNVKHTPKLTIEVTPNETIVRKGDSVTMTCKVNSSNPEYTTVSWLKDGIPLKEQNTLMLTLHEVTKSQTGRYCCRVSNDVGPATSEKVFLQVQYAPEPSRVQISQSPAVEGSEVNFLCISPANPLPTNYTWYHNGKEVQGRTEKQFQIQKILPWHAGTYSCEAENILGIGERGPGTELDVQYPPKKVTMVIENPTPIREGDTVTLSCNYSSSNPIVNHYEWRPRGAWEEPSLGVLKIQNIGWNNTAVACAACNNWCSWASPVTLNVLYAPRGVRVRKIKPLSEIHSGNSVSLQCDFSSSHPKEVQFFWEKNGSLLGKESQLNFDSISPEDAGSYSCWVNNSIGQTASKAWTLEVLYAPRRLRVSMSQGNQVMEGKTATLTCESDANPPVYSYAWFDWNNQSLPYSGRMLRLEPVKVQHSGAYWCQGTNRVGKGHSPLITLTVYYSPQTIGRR

T2: human CD22-ECD-His protein (human, UniProt P20273 20-687)
T2 construct: Recombinant, from HEK293E cells; also called hCD22-ECD-His; human CD22-His protein; not shown: His tag
T2 sequence: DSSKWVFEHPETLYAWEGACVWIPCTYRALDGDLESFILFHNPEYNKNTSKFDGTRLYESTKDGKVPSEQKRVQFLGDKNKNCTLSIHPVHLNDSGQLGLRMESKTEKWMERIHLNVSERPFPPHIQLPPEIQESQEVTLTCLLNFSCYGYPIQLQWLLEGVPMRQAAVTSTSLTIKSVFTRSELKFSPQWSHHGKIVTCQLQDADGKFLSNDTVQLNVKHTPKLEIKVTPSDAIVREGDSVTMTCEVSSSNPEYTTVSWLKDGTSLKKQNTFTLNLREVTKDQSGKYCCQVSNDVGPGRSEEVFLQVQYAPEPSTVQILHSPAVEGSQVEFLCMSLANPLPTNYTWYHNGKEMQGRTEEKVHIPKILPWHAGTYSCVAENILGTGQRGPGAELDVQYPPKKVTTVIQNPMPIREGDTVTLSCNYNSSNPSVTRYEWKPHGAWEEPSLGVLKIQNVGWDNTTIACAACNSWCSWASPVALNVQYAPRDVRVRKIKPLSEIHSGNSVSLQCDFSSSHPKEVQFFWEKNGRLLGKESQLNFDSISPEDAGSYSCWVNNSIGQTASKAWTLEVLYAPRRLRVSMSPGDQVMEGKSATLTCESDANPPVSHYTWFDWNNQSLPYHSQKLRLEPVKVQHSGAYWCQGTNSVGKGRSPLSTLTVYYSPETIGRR

T3: human CD22 domain5-7-His (human, UniProt P20273 414-687)
T3 construct: also called hCD22 domain5-7-His; not shown: His tag
T3 sequence: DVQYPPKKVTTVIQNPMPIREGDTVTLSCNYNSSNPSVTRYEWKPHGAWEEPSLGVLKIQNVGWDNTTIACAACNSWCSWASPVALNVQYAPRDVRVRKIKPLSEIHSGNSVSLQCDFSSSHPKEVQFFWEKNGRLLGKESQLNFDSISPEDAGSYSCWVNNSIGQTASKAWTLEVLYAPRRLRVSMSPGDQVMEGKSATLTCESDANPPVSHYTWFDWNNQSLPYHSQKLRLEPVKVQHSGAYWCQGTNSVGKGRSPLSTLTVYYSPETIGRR

B1: F1.250.16 (antibody, human IgG1, kappa, V domains shown)
VH: QVQLQQSGAEQVKPGASVKMSCKASGYTFTTYPIEWMKQNHGESLDWIGNIHPYNDDTEYNEKFKGKATLTVEKSSNTVFLELSRLTSDDSAVYYCVRGDYYNSRYWYFDVWGTGTTVTVSS
VL: DIVMTQSQKFMSTTVGDRVSITCKAGQNVRTAVAWYQQKPGQSPKLLIYSASTRYIGVPERFTGSGSGTDFTLTITNMQSEDLADYFCQQYSSFPLTFGTGTKLELKR
notes: Chimeric IgG1 kappa
B2: F2.205.9 (antibody, human IgG1, lambda, V domains shown)
VH: QVTLKESGPGILQPSQTLSLTCSFSGFSLSTSGMGVGWIRQPSGKGLEWLAHIWWDDDEYYNPALKSRLTISKDTSKNQVFLKIANVDTADTATYYCARISIPYGYYDWFFDVWGTGTTVTVSA
VL: QAVVTQESALTTSPGETVTLTCRSSTGAVTTRNYANWVQEKPDHLFTGLIGGTNNRAPGVPARFSGSLIGDKAALTITGAQTEDEAIYFCALWYSNHFIFGSGTKVTVLG
notes: Chimeric IgG1 lambda
B3: F2.173.9 (antibody, human IgG1, lambda, V domains shown)
VH: EVQLVESGGDLVKPGESLKLSCEASGFTFSNYAMSWVRQTPDRRLEWVATISSIGSFTYYSDSVKGRFTISRDNVKSTLHLQMNNLKSGDTAIYFCARLGVYFDSWGQGTTLTVSS
VL: QLVLTQSSSASFSLGASAKLTCTLSSQHSTYTIEWYQQQPHKPPKFVMEIKKDGSHYTGDGIPDRFSGSSSGADRYLSISNIQPEDETIYICGVSDMIKDQFVYVFGGGTKVTVLG
notes: Chimeric IgG1 lambda
B4: F1.267.9 (antibody, human IgG1, kappa, V domains shown)
VH: EVQLQQSGPVLVKPGASVKMSCKASGYTFTDFYMNWAKQSHGKSLEWVGVINPYNGGINYNQKFKGKATLTVDKSSSTAYMEFNSLTSEDSAVYYCARRMEYHAMDYWGQGTSVTVSS
VL: DIVLTQSPASLAVSLGQRATISCRASESVDNYGFDFIHWYQQKPGQPPKLLIYRASNLESGIPARFSGSGSRPDFTLTINPVETDDVATYYCQQSIKDPWTFGGGTKLEIKR
notes: Chimeric IgG1 kappa
B5: F1.120.15 (antibody, human IgG1, kappa, V domains shown)
VH: QVQLQQSGPELVKPGASVKISCKASGNAFSNSWMNWVKQRPGKGLEWIGRVYSEDGDTQYNGKFRDKATLTADRSTSTAYMQLSSLTSEDSAVYFCARWLIYYGTYGAMDYWGQGTSVTVSS
VL: DIQMTQTTSSLSASLGDRVTISCRASQDINNYLNWYHQKPDGTVKLLIYFTSRPYSGVPSRFSGSGSGTDYSLTISNLEQEDIATYFCQQGNTLPWTFGGGTKLEIKR
notes: Chimeric IgG1 kappa
B6: F1.216.2 (antibody, human IgG1, kappa, V domains shown)
VH: QVQLQQSGPEVVRPGASVKISCKASGYAFSSSWMNWMKQRPGKALEWIGRIYPGDGDTNYSGEFKVKATLTADKSSSTAYMQLSSLTSEDSAVYFCAREGSYYSNPWYFDYWGQGTTLTVSS
VL: DVLVTQTPLSLPVSLGDQASISCRSSQSIVQSNGDTYLEWYLQKPGQSPKLLIYKVSNRFSGVPDRFSGSGSGTDFTLKISRVEAEDLGVYYCFQGSHVPFTFGSGTKLEIKR
notes: Chimeric IgG1 kappa
B7: F1.224.1 (antibody, human IgG1, kappa, V domains shown)
VH: EVLLHQSGPELVKPGASVKISCKASGYTFTDFNMDWVRQRHGQSLEWIGDVNPNNGGTIYNQKFKGKATLTVDKSSSTVYMDLRSLTSDDTAVYYCVRLGTSDYGEAWFISWGQGTVVTVSA
VL: DIVLTQSPASLAVSLGQRATISCRASQSVSTPRYSFMHWYQQKPGQPPKLLIKYASNLESGFPARFTGSGSGTDFTLNIHPVEEEDTAAYYCQQSWAIPWTFGGGTKLEIKR
notes: Chimeric IgG1 kappa
B8: F1.172.13 (antibody, human IgG1, kappa, V domains shown)
VH: QVTLKESGPGILQSSQTLSLTCSFSGFSLSTSGMGVSWIRQPSGKGLEWLAHIYWDDDKRYNPSLKSRLTISKDTSRNQVFLKITSVDTADTATYYCARAPPPNWDEYYFDYWGQGTTLTVSS
VL: DIQMTQSPASLSASVGETVTITCRASGNIHNSLAWYQQKQGKSPQLLVHNAKTLADGVPSRFSGSGSGTQYSLKINSLQPEDFGSYYCQHFWSTPPFGGGTKLEIKR
notes: Chimeric IgG1 kappa
B9: F2.99.1 (antibody, human IgG1, lambda, V domains shown)
VH: QVTLKESGPGILQPSQTLSLTCSFSGFSLSTFPMGVGWIRQPSGKGLEWLAHIWWDDDEYYNPVLKSRLTISKDTSKKQVYLRIANVDTVDTATYYCTRANWDRWYFDVWGTGTTVTVSS
VL: QLVLTQSSSASFSLGASAKLTCTLSRQHSAYTIEWYQQQPLKPPKYVMEVKKDGSHSTGDGIPDRFSGSSSGADRYLSISNIQPEDEAIYICGVGDTIKEHFVFGGGTKVTVLG
notes: Chimeric IgG1 lambda
B10: F1.17.1 (antibody, human IgG1, kappa, V domains shown)
VH: QVQLKESGPGLVAPSQSLSITCTVSGFSLSRYTVHWVRQPPGKGLEWLGMIWGGGSTDYNSALKSRLSISKDNSKSQVFLKMNSLQTDDTAMYYCARPHDFDAGGFAYWGQGTLVTVSA
VL: QIVLTQSPAILSTSPGEKVTMTCSASSRVNYMYWYQQKPGSSPRLLIYDTSNLASGVPVRFSGSGSGTSYSLTISRMEAEDAATYYCQQWTSYPLTFGAGTKLELKR
notes: Chimeric IgG1 kappa

The binders below were run against T1, rhesus monkey CD22-ECD-His protein (assay: SPR (Biacore), antibody captured on Protein A chip, rhesus CD22 in solution).

Row | Kd [nM] | koff [s⁻¹] | kon [M⁻¹ s⁻¹] | Binder
1 | 3.48 | 0.00127 | 366000 | B1
2 | 10.3 | 0.0014 | 135000 | B2
3 | 46.7 | 0.000883 | 18900 | B3
4 | 2.25 | 6e-05 | 26700 | B4
5 | 15.1 | 0.000637 | 42100 | B5
6 | 7.18 | 0.000538 | 74900 | B6
7 | 2.04 | 0.000107 | 52300 | B7
8 | 6.9 | 0.00138 | 200000 | B8
9 | 14.5 | 0.000545 | 37600 | B9
10 | 3.67 | 0.000531 | 144000 | B10

The binders below were run against T2, human CD22-ECD-His protein (assay: SPR (Biacore), antibody captured on Protein A chip, CD22-ECD-His in solution).
Experimental: Sample buffer and running buffer were HBS-EP+(10 mM HEPES, 150 mM NaCl, 3 mM EDTA, 0.05% surfactant P20) (GE Healthcare; BR-1006-69). The flow-through cell was set to 25° C. The sample block was set to 16° C. Both were pretreated with the running buffer. In each cycle, the antibody to be tested was first captured with a Protein A chip, then a single concentration of CD22 antigen protein was injected. The binding and dissociation process of the antibody and the antigen protein was recorded, and finally Glycine pH 1.5 (GE Healthcare; BR-1003-54) was used to complete chip regeneration. Binding was measured by injecting different concentrations of recombinant human CD22-ECD His protein in solution for 240 s with a flow rate of 30 μL/min. The concentration started from 200 nM (see the detailed results for the actual concentration in the test) and was diluted at 1:1, making a total of 5 concentrations. The dissociation phase was monitored for up to 600 s and was triggered by switching from sample solution to running buffer. The surface was regenerated by washing with a 10 mM of glycine solution (pH 1.5) for 30 s at a flow rate of 30 μL/min. Bulk refractive index difference was corrected by subtracting the response obtained from the goat anti-human Fc surface. Blank injection was also subtracted (=double reference). For calculation of apparent KD and other kinetic parameters, Langmuir 1:1 model was used.

Row | Kd [nM] | koff [s⁻¹] | kon [M⁻¹ s⁻¹] | Binder
11 | 1.44 | 0.000607 | 422000 | B1
12 | 1.57 | 0.000386 | 246000 | B2
13 | 4.74 | 0.000232 | 49000 | B3
14 | 40.9 | 0.000223 | 5440 | B4
15 | 19.5 | 0.000232 | 11900 | B5
16 | 25.3 | 0.000944 | 37300 | B6
17 | 13.8 | 0.000267 | 19400 | B7
18 | 17.6 | 0.00539 | 306000 | B8
19 | 1.55 | 0.000162 | 105000 | B9
20 | 2.07 | 0.000498 | 241000 | B10

What follows are binders tested against T3, human CD22 domain5-7-His (assay: ELISA, plate coated with human CD22 domain5-7-His).

Row | binding result | Binder
21 | no binding | B1
22 | no binding | B2
23 | no binding | B3
24 | no binding | B4
25 | no binding | B5
26 | no binding | B6
27 | no binding | B7
28 | no binding | B8
29 | no binding | B9
30 | no binding | B10
